In PMC11208146, “Molecular basis for transposase activation by a dedicated AAA+ ATPase”:

B1: IS21 strand-transfer complex (STC) DNA (dsDNA)
DNA 1: CCTTCTGGGGAATTTTAAACCGGCGATTTTGGGGAAAAAATAATCGGCCTTGACAGCTGCACAGTAAGAGAATTATGCAGTGCTGCCATAACCATGAGTGATAACACTGCGGCCAACTTACTTCTGACAA
DNA 2: ATTCATGTCAAGGCCGATTATTTTTTCCCCAAAATCGCCGGTTTAAAATTCCCCAGAAGG
DNA 3: TTGTCAGAAGTAAGTTGGCCGCAGTGTTATCACTCATGGTTATGGCAGCACTGCATAATTCTCTTACTGT
B2: random 60-mer target duplex (dsDNA)
DNA 1: TGCTTGCGATGATCCGACGTGTTAGCCACGCTGACTAGTTATGCCATGCCTCCCTTCAGG
DNA 2: CCTGAAGGGAGGCATGGCATAACTAGTCAGCGTGGCTAACACGTCGGATCATCGCAAGCA

What was measured:
[1] = target: IstA;IstB E167Q (Walker B mutant) (Geobacillus stearothermophilus (IS5376, …, UniProt Q45618;Q45619 1-400;1-251, |E167Q)); experiment: cryo-EM structure (3.6 A; core 3.2 A); ATP, with ADP in IstA-bound IstB subunits; Mg2+; IstB-DNA: 20 mM HEPES pH 7.5, 150 mM NaCl, 5 mM MgCl2, 5% glycerol, 1 mM ATP, 1 mM DTT; dialysis at 4 C, SEC at room temperature; IstB:DNA 6.5:1. STC complex buffer not in the material; conditions: protein: recombinant;recombinant; tags: C-terminal MBP-His6, cleaved with TEV protease;His6-MBP, cleaved with PreScission protease; chain copies: 4;20; 5' overhang 5 nt on non-transferred strand; half-substrates of 3 strands, 2 copies pair via the insertion site (5 bp spacing)
IstA;IstB = IstA;IstB (Geobacillus stearothermophilus (IS5376, …, UniProt Q45618;Q45619 1-400;1-251, |)); experiment: negative-stain EM 2D averages; wild-type IstB; IstB-DNA: 20 mM HEPES pH 7.5, 150 mM NaCl, 5 mM MgCl2, 5% glycerol, 1 mM ATP, 1 mM DTT; dialysis at 4 C, SEC at room temperature; IstB:DNA 6.5:1. STC complex buffer not in the material; conditions: protein: recombinant;recombinant; tags: C-terminal MBP-His6, cleaved with TEV protease;His6-MBP, cleaved with PreScission protease; chain copies: 4;20; 5' overhang 5 nt on non-transferred strand; half-substrates of 3 strands, 2 copies pair via the insertion site (5 bp spacing)
IstB = IstB (Geobacillus stearothermophilus (IS5376, …, UniProt Q45619 1-251)); experiment: cryo-EM structure (3.2 A); size-exclusion co-elution; 1 mM ATP, 5 mM MgCl2; IstB-DNA: 20 mM HEPES pH 7.5, 150 mM NaCl, 5 mM MgCl2, 5% glycerol, 1 mM ATP, 1 mM DTT; dialysis at 4 C, SEC at room temperature; IstB:DNA 6.5:1. STC complex buffer not in the material; conditions: protein: recombinant; tags: His6-MBP, cleaved with PreScission protease; chain copies: 10; blunt

Row | Binder | binding result [1] | binding result (IstA;IstB) | binding result (IstB)
1 | B1 | binds | binds | –
2 | B2 | – | – | binds
